Assay [1] concerns the target Retinoblastoma protein (Rb), endogenous (UniProt P06400). The assay can be described thus: co-immunoprecipitation (IP GFP, western blot Rb) quantified with image J. As to conditions: MCF7 cells; 3 independent experiments; parent: est. 32; read off a plot. Background: Immunoblotting shows a protein as a band on a membrane.
The target of assay [2] is CBP, endogenous (UniProt Q92793). Put plainly: co-immunoprecipitation (IP GFP, western blot CBP) quantified with image J. As to conditions: MCF7 cells; 3 independent experiments; parent: est. 25; read off a plot.
Sequence of UniProt Q92793 (Q92793 whole entry): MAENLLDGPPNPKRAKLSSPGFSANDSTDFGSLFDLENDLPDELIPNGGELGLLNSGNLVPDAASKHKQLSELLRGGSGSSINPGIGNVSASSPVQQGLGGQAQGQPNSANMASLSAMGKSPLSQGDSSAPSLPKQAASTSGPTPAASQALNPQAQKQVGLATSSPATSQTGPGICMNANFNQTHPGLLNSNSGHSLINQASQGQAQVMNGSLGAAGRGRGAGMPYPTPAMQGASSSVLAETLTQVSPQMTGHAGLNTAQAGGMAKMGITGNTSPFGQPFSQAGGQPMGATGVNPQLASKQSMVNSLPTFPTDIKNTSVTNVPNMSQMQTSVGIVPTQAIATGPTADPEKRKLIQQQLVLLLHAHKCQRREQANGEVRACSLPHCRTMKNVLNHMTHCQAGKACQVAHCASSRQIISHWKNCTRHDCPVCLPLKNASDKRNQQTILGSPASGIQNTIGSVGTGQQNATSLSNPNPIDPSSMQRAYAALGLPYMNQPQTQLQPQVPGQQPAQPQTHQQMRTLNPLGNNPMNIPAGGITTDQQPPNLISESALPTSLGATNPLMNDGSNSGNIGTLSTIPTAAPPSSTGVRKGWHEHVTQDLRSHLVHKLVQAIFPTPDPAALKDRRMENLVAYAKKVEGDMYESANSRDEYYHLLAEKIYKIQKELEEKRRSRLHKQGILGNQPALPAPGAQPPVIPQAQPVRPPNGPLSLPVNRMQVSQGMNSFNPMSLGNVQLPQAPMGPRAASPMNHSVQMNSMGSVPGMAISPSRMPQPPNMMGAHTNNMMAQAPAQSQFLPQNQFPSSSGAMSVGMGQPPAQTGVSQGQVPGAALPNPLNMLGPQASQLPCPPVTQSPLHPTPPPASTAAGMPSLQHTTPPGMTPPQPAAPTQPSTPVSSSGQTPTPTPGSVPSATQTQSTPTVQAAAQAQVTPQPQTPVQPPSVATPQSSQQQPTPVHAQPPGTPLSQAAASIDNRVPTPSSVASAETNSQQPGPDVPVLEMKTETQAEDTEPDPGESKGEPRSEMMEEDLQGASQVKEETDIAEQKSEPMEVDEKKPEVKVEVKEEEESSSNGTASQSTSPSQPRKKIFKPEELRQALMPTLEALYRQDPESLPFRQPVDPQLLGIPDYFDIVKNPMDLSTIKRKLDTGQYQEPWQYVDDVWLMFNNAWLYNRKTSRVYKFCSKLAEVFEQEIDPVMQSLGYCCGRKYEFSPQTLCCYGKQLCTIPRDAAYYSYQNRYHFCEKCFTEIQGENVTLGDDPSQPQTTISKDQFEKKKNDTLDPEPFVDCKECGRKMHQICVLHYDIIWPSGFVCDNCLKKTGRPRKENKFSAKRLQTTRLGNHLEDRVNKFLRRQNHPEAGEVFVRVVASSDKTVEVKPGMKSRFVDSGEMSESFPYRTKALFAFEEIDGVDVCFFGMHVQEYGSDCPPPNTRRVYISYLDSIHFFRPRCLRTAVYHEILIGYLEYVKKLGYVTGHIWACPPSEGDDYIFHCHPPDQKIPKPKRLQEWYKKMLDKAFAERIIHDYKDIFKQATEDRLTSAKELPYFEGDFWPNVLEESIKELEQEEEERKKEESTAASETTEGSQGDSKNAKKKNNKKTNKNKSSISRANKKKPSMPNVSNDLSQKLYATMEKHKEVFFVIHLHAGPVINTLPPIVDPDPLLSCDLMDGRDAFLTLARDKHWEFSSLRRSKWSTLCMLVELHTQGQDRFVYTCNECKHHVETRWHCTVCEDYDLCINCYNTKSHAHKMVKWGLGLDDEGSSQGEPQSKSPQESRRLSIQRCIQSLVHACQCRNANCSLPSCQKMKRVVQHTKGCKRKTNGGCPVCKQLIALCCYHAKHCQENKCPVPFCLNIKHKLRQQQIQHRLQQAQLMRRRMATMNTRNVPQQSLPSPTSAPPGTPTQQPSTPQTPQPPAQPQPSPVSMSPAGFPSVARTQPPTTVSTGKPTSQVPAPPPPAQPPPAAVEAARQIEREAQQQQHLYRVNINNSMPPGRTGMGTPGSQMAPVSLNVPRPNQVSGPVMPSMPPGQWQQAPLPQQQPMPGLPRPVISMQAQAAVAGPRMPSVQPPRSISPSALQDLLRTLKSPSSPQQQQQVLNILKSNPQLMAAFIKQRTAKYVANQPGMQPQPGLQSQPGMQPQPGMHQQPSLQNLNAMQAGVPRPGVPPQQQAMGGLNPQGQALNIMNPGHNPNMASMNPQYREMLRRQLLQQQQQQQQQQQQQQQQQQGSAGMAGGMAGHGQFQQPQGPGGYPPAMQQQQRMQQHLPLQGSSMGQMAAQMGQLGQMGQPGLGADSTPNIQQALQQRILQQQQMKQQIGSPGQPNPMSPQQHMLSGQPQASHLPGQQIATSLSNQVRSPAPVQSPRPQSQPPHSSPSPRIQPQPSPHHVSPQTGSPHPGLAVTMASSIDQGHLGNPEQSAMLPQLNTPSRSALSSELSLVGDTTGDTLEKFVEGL
Assay [3] deals with Retinoblastoma protein (Rb), endogenous (UniProt P06400). The assay can be described thus: co-immunoprecipitation (IP GFP, western blot Rb), band intensity given. As to conditions: MCF7 cells.
Assay [4] concerns the target CBP, endogenous (UniProt Q92793). The assay can be described thus: co-immunoprecipitation (IP GFP, western blot CBP), band intensity given. As to conditions: MCF7 cells.
Another assay has as its target DNMT3b, endogenous (UniProt Q9UBC3). The assay can be described thus: co-immunoprecipitation (IP GFP, western blot DNMT3b), band intensity given. As to conditions: MCF7 cells.

Sequence of UniProt P06400 (P06400 whole entry): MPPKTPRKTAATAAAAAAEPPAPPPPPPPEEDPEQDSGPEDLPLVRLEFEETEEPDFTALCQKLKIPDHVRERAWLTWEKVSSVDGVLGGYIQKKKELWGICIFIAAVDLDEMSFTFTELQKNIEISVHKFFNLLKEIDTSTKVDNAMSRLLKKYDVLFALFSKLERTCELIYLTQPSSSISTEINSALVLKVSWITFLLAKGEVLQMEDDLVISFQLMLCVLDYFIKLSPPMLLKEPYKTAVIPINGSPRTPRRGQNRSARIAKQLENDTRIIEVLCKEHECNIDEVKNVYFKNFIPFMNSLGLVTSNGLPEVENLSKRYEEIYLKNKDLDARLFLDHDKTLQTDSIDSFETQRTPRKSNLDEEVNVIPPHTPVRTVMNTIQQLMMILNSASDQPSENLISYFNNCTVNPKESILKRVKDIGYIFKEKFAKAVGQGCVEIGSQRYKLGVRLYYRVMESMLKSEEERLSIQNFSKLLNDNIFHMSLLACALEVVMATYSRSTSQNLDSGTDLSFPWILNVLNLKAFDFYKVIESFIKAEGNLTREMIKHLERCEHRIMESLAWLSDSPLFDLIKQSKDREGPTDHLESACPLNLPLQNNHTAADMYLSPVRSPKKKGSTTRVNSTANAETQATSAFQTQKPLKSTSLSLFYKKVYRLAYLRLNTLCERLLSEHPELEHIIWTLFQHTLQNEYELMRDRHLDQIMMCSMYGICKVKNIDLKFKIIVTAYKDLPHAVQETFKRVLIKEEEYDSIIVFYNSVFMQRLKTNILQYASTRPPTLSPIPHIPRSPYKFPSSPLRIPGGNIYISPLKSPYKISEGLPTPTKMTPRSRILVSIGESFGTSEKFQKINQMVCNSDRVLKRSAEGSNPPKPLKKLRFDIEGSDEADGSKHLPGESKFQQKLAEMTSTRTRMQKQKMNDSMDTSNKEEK

In the case of GFP-FoxM1 full length (FL) S715A; S724A, the response (fold pull down) in assay [1] was determined as 36; with CBP, endogenous [2], 9.7. Moreover, the response in assay [3] turned out to be 24.7; in the assay with CBP, endogenous [4], 6; with DNMT3b, endogenous it was 90.

Consider GFP-FoxM1 full length (FL) S715D; S724D, for which the response (fold pull down) came out at 5.8 in assay [1] and 31 with CBP, endogenous [2]. In addition, the response in assay [3] turned out to be 6.7; in the assay with CBP, endogenous [4] it was 21; with DNMT3b, endogenous, 32.3.

For the substance GFP-FoxM1 full length (FL) T596A, the response (fold pull down) in assay [1] stood at 38; with CBP, endogenous [2] it was 8.4. Moreover, the response in assay [3] was 30.4; in the assay with CBP, endogenous [4] it was 5.1; with DNMT3b, endogenous, 112.

The values above are taken from paper PMC5384083.
